Measurements from US12649008B2, “Peptide receptor radionuclide therapy” (The Regents of the University of California, priority 2020, dated 2026).
Read-outs that look alike come from different tables or passages of the source.

Columns and labels:
mouse serum proteins = test: Serum protein (albumin) binding by ultrafiltration, mouse serum; format: in vitro ADME; settings: 37° C.
Procedure: The devices were pre-treated with PBS containing Tween 20 (5% v/v) as disclosed in Hausner 2007, followed by triplicate rinses with PBS. An aliquot of each formulated radiotracer in PBS (≤25 μL, 20-60 KBq) was thoroughly mixed with 0.5 mL serum at 37° C. in a microfuge tube. The mixture was incubated at 37° C. for 5 min and an aliquot (50 μL) of was transferred to a tube for γ-counting. The remaining sample was transferred to a Centrifree Ultrafiltration device and centrifuged for 40 min. at 1500×g at ambient temperature (20-24° C.). An aliquot (50 μL) of the filtrate was transferred to a tube for γ-counting. For each radiotracer, a blank was run using 0.5 mL PBS/Tween 20 (5% v/v) instead of serum (n=4) to determine non-specific binding. Following γ-counting, the protein-bound radioactivity was calculated by subtracting the counts measured in the filtrate aliquot (i.e., not protein bound) from the counts in the corresponding serum aliquot. The data are expressed as mean±standard deviation of fraction of radioactivity bound to protein after subtraction of non-specific binding determined in the blank.

[1] = In vitro serum stability, human serum; format: in vitro ADME; settings: 37° C., read-out: stability in human serum (intact radiotracer)
Procedure: Mouse or human serum (500 μl, both purchased from Millipore Sigma) was combined with an aliquot of the formulated radiotracer (100-200 μCi) and incubated at 37° C. Aliquots (100-200 μl) were drawn for analysis at 1 and 2 h post-incubation for the ^68Ga radiotracers and 1 and 24 h post-incubation for ^177Lu radiotracers, mixed with absolute ethanol (500 μl, 4° C.), and centrifuged (2300× g, 3 min) to precipitate out serum proteins. The supernatant was diluted with HPLC Solvent A and analyzed by radio-HPLC to determine the fraction of intact radiotracer as disclosed in Hausner et al., “In vitro and in vivo evaluation of the effects of aluminum [^18F]fluoride radiolabeling on an integrin αvβ6-specific peptide” Nuclear medicine and biology.

[2] = Biodistribution in mice bearing BxPC-3 tumors; format: in vivo; settings: female, nu/nu nude, mouse, iv, total radioactivity; for tissue uptake at 1 h: 1 h p.i.; for tissue uptake at 4 h: 4 h p.i.; for tissue uptake at 24 h: 24 h p.i.; for tissue uptake at 48 h: 48 h p.i.; for tissue uptake at 72 h: 72 h p.i.
Procedure: Female nu/nu nude mice (6-8 weeks old) were purchased from Charles River Laboratories (Wilmington, MA, USA) and handled according to the UC Davis Institutional Animal Care and Use Committee. BxPC-3 cells (5×10^6) in 100 μl 1:1 GFR-Matrigel: serum-free RPMI were implanted subcutaneously into the left shoulder flank and allowed to grow for approximately 2 weeks (therapy study) and 3 weeks (0.5-1 cm in diameter, for imaging and biodistribution studies). All cells were evaluated with flow cytometry before injection to confirm integrin expression levels. Food and water were available ad libitum.
For blocking studies, respective non-chelated cold peptide (30 mg/kg, 10 mg/mL (DOTA-5G) and 48 mg/kg, 16 mg/mL (DOTA-ABM-5G) solution in PBS) was injected 10 min. before the formulated radiotracer. At each time point, the mice (n=3/time point/radiotracer) were anesthetized and sacrificed. The tissues were collected, rinsed with PBS, and the radioactivity of each measured with a gamma counter. Radioactivity concentrations were calibrated, decay-corrected, and expressed as percent of injected dose per gram of tissue (% ID/g).

[3] = BxPC-3 tumor, read-out: uptake BxPC-3 tumor
[4] = bladder, read-out: uptake Bladder
[5] = gall bladder, read-out: uptake Gall Bladder
[6] = kidneys, read-out: uptake Kidneys
[7] = large intestines, read-out: uptake Lg Intestines
[8] = muscle, read-out: uptake Muscle
[9] = pancreas, read-out: uptake Pancreas
[10] = small intestines, read-out: uptake Sm Intestines
[11] = spleen, read-out: uptake Spleen
[12] = stomach, read-out: uptake Stomach

## CNC(=O)C(CCCCNC(=O)C(CC(=O)O)NC(=O)CCCNC(=O)CCCc1ccc(I)cc1)NC(=O)CN1CCN2CCN3CCN(CC1)CC(=O)[O][177Lu]([O]C(=O)C2)[O]C(=O)C3 (stereo not shown) [[^177Lu]Lu DOTA-ABM-5G]
Mouse serum proteins
  albumin (serum protein) binding: 54.4±2.8%
[1]
  remaining at 24 h: ≥ 97%
[2]; [3]
  tissue uptake at 1 h: 4.54 ± 0.42 %ID/g
  tissue uptake at 4 h: 7.15 ± 3.04 %ID/g
  tissue uptake at 24 h: 5.25 ± 0.71 %ID/g
  tissue uptake at 48 h: 5.12 ± 0.47 %ID/g
  tissue uptake at 72 h: 5.29 ± 0.75 %ID/g
[2]; [4]
  tissue uptake at 1 h: 6.75 ± 2.39 %ID/g
  tissue uptake at 24 h: 2.91 ± 0.16 %ID/g
  tissue uptake at 48 h: 2.69 ± 0.33 %ID/g
  tissue uptake at 72 h: 3.29 ± 0.63 %ID/g
[2]; blood, read-out: uptake Blood
  tissue uptake at 1 h: 5.36 ± 0.71 %ID/g
  tissue uptake at 24 h: 0.08 ± 0.01 %ID/g
  tissue uptake at 48 h: 0.02 %ID/g
  tissue uptake at 72 h: 0.01 %ID/g
[2]; bone, read-out: uptake Bone
  tissue uptake at 1 h: 0.66 ± 0.15 %ID/g
  tissue uptake at 24 h: 0.27 ± 0.08 %ID/g
  tissue uptake at 48 h: 0.16 ± 0.19 %ID/g
  tissue uptake at 72 h: 0.19 ± 0.13 %ID/g
[2]; brain, read-out: uptake Brain
  tissue uptake at 1 h: 0.14 ± 0.01 %ID/g
  tissue uptake at 24 h: 0.04 ± 0.01 %ID/g
  tissue uptake at 48 h: 0.02 %ID/g
  tissue uptake at 72 h: 0.03 %ID/g
[2]; [5]
  tissue uptake at 1 h: 1.72 ± 0.46 %ID/g
  tissue uptake at 24 h: 1.11 ± 0.71 %ID/g
  tissue uptake at 48 h: 0.71 ± 0.13 %ID/g
  tissue uptake at 72 h: 1.09 ± 0.61 %ID/g
[2]; heart, read-out: uptake Heart
  tissue uptake at 1 h: 2.05 ± 0.37 %ID/g
  tissue uptake at 24 h: 0.71 ± 0.05 %ID/g
  tissue uptake at 48 h: 0.64 ± 0.06 %ID/g
  tissue uptake at 72 h: 0.46 ± 0.11 %ID/g
[2]; [6]
  tissue uptake at 1 h: 20.9 ± 3.1 %ID/g
  tissue uptake at 24 h: 12.3 ± 1.24 %ID/g
  tissue uptake at 48 h: 10.1 ± 1.04 %ID/g
  tissue uptake at 72 h: 8.84 ± 1.15 %ID/g
[2]; [7]
  tissue uptake at 1 h: 6.31 ± 1.86 %ID/g
  tissue uptake at 4 h: < 7 %ID/g
  tissue uptake at 24 h: 3.63 ± 0.09 %ID/g
  tissue uptake at 48 h: 3.13 ± 0.53 %ID/g
  tissue uptake at 72 h: 3.01 ± 0.44 %ID/g
[2]; liver, read-out: uptake Liver
  tissue uptake at 1 h: 1.05 ± 0.05 %ID/g
  tissue uptake at 4 h: < 1 %ID/g
  tissue uptake at 24 h: 0.22 ± 0.01 %ID/g
  tissue uptake at 48 h: 0.16 ± 0.02 %ID/g
  tissue uptake at 72 h: 0.12 ± 0.01 %ID/g
[2]; lung, read-out: uptake Lung
  tissue uptake at 1 h: 2.68 ± 0.21 %ID/g
  tissue uptake at 24 h: 1.1 ± 0.15 %ID/g
  tissue uptake at 48 h: 0.68 ± 0.08 %ID/g
  tissue uptake at 72 h: 0.53 ± 0.1 %ID/g
[2]; [8]
  tissue uptake at 1 h: 0.96 ± 0.24 %ID/g
  tissue uptake at 24 h: 0.52 ± 0.08 %ID/g
  tissue uptake at 48 h: 0.52 ± 0.03 %ID/g
  tissue uptake at 72 h: 0.42 ± 0.02 %ID/g
[2]; [9]
  tissue uptake at 1 h: 0.92 ± 0.07 %ID/g
  tissue uptake at 24 h: 0.6 ± 0.11 %ID/g
  tissue uptake at 48 h: 0.5 ± 0.09 %ID/g
  tissue uptake at 72 h: 0.36 ± 0.12 %ID/g
[2]; skin, read-out: uptake Skin
  tissue uptake at 1 h: 2.16 ± 0.35 %ID/g
  tissue uptake at 24 h: 1.49 ± 0.57 %ID/g
  tissue uptake at 48 h: 0.95 ± 0.05 %ID/g
  tissue uptake at 72 h: 1.08 ± 0.16 %ID/g
[2]; [10]
  tissue uptake at 1 h: 5.46 ± 0.54 %ID/g
  tissue uptake at 24 h: 3.02 ± 0.32 %ID/g
  tissue uptake at 48 h: 1.74 ± 0.22 %ID/g
  tissue uptake at 72 h: 0.71 ± 0.16 %ID/g
[2]; [11]
  tissue uptake at 1 h: 0.75 ± 0.03 %ID/g
  tissue uptake at 24 h: 0.12 ± 0.01 %ID/g
  tissue uptake at 48 h: 0.1 ± 0.02 %ID/g
  tissue uptake at 72 h: 0.1 ± 0.01 %ID/g
[2]; [12]
  tissue uptake at 1 h: 9.16 ± 0.58 %ID/g
  tissue uptake at 24 h: 7.55 ± 1.45 %ID/g
  tissue uptake at 48 h: 5.49 ± 0.27 %ID/g
  tissue uptake at 72 h: 4.76 ± 1.22 %ID/g
